{
  "source": "paper PMC8930418",
  "target": "dSpCas9 (catalytically inert dCas9) (UniProt Q99ZW2)",
  "sequence (Q99ZW2 whole entry)": "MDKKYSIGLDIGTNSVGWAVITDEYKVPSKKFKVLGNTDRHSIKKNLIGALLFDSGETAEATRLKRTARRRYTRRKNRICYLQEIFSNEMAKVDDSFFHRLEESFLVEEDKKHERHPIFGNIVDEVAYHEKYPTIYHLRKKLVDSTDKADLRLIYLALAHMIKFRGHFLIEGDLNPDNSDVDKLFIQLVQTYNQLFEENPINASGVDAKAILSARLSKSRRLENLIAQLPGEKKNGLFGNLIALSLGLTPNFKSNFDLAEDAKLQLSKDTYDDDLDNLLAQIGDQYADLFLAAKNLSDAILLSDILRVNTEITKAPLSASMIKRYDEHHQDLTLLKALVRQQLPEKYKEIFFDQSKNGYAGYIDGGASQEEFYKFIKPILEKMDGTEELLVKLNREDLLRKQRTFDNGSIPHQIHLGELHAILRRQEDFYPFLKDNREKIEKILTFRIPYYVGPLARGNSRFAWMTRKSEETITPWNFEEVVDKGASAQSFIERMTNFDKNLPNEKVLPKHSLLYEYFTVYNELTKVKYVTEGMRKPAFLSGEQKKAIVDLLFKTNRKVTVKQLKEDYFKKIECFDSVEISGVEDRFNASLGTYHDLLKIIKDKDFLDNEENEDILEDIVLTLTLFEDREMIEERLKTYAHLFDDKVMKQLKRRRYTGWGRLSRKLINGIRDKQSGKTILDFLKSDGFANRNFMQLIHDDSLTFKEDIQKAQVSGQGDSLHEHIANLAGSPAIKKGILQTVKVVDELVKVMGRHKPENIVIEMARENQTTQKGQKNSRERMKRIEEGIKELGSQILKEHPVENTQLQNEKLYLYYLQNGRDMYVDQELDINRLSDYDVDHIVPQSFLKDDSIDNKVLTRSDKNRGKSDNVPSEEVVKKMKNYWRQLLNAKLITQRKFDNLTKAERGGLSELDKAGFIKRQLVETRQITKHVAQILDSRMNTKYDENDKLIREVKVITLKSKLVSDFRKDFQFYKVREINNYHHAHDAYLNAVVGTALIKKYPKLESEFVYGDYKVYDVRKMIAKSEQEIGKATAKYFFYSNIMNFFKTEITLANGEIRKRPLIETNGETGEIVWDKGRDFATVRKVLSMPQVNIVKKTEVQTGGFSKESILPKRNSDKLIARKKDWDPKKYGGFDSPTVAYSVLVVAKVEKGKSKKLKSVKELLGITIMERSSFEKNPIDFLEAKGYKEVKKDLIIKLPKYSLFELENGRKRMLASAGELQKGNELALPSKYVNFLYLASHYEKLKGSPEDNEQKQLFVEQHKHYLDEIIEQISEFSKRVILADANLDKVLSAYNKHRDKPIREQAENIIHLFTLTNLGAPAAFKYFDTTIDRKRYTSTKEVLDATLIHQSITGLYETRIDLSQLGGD",
  "test": "MST",
  "data": [
    {"sequence": "GGCCCAGACTGAGCACGTGAGTTTTAGAGCTAGAAATAGCAAGTTAAAATAAGGCTAGTCCGTTATCAACTTGAAAAAGTGGCACCGAGTCGGTGCTGGAGGAAGCAGGGCTTCCTTTCCTCTGCCATCACTTATCGTCGTCATCCTTGTAATCCGTGCTCAGTCTGTCTCTCTCTTGACGCGGTTCTATCTAGTTACGCGTTAAACCAACTAGAAATTTTTT [evopreQ1 epegRNA (guide) + HEK3 dsDNA target]", "values": [
      {"measurement": "Kd", "result": 10, "unit": "nM"}
    ]},
    {"sequence": "GGCCCAGACTGAGCACGTGAGTTTTAGAGCTAGAAATAGCAAGTTAAAATAAGGCTAGTCCGTTATCAACTTGAAAAAGTGGCACCGAGTCGGTGCTGGAGGAAGCAGGGCTTCCTTTCCTCTGCCATCACTTATCGTCGTCATCCTTGTAATCCGTGCTCAGTCTGTTTTTT [unmodified pegRNA (guide) + HEK3 dsDNA target]", "values": [
      {"measurement": "Kd", "result": 8.1, "unit": "nM"}
    ]}
  ]
}
